Reference: IntAct's records for PubMed 21642969

B1: Transcription intermediary factor 1-beta (Homo sapiens), Q13263 (parent)
chain: MAASAAAASAAAASAASGSPGPGEGSAGGEKRSTAPSAAASASASAAASSPAGGGAEALELLEHCGVCRERLRPEREPRLLPCLHSACSACLGPAAPAAANSSGDGGAAGDGTVVDCPVCKQQCFSKDIVENYFMRDSGSKAATDAQDANQCCTSCEDNAPATSYCVECSEPLCETCVEAHQRVKYTKDHTVRSTGPAKSRDGERTVYCNVHKHEPLVLFCESCDTLTCRDCQLNAHKDHQYQFLEDAVRNQRKLLASLVKRLGDKHATLQKSTKEVRSSIRQVSDVQKRVQVDVKMAILQIMKELNKRGRVLVNDAQKVTEGQQERLERQHWTMTKIQKHQEHILRFASWALESDNNTALLLSKKLIYFQLHRALKMIVDPVEPHGEMKFQWDLNAWTKSAEAFGKIVAERPGTNSTGPAPMAPPRAPGPLSKQGSGSSQPMEVQEGYGFGSGDDPYSSAEPHVSGVKRSRSGEGEVSGLMRKVPRVSLERLDLDLTADSQPPVFKVFPGSTTEDYNLIVIERGAAAAATGQPGTAPAGTPGAPPLAGMAIVKEEETEAAIGAPPTATEGPETKPVLMALAEGPGAEGPRLASPSGSTSSGLEVVAPEGTSAPGGGPGTLDDSATICRVCQKPGDLVMCNQCEFCFHLDCHLPALQDVPGEEWSCSLCHVLPDLKEEDGSLSLDGADSTGVVAKLSPANQRKCERVLLALFCHEPCRPLHQLATDSTFSLDQPGGTLDLTLIRARLQEKLSPPYSSPQEFAQDVGRMFKQFNKLTEDKADVQSIIGLQRFFETRMNEAFGDTKFSAVLVEPPPMSLPGAGLSSQELSGGPGDGP

Variants of: B1
Conditions: with chd3_human CHD3, Q12873
Sequence of chd3_human CHD3, Q12873 (Q12873 whole entry): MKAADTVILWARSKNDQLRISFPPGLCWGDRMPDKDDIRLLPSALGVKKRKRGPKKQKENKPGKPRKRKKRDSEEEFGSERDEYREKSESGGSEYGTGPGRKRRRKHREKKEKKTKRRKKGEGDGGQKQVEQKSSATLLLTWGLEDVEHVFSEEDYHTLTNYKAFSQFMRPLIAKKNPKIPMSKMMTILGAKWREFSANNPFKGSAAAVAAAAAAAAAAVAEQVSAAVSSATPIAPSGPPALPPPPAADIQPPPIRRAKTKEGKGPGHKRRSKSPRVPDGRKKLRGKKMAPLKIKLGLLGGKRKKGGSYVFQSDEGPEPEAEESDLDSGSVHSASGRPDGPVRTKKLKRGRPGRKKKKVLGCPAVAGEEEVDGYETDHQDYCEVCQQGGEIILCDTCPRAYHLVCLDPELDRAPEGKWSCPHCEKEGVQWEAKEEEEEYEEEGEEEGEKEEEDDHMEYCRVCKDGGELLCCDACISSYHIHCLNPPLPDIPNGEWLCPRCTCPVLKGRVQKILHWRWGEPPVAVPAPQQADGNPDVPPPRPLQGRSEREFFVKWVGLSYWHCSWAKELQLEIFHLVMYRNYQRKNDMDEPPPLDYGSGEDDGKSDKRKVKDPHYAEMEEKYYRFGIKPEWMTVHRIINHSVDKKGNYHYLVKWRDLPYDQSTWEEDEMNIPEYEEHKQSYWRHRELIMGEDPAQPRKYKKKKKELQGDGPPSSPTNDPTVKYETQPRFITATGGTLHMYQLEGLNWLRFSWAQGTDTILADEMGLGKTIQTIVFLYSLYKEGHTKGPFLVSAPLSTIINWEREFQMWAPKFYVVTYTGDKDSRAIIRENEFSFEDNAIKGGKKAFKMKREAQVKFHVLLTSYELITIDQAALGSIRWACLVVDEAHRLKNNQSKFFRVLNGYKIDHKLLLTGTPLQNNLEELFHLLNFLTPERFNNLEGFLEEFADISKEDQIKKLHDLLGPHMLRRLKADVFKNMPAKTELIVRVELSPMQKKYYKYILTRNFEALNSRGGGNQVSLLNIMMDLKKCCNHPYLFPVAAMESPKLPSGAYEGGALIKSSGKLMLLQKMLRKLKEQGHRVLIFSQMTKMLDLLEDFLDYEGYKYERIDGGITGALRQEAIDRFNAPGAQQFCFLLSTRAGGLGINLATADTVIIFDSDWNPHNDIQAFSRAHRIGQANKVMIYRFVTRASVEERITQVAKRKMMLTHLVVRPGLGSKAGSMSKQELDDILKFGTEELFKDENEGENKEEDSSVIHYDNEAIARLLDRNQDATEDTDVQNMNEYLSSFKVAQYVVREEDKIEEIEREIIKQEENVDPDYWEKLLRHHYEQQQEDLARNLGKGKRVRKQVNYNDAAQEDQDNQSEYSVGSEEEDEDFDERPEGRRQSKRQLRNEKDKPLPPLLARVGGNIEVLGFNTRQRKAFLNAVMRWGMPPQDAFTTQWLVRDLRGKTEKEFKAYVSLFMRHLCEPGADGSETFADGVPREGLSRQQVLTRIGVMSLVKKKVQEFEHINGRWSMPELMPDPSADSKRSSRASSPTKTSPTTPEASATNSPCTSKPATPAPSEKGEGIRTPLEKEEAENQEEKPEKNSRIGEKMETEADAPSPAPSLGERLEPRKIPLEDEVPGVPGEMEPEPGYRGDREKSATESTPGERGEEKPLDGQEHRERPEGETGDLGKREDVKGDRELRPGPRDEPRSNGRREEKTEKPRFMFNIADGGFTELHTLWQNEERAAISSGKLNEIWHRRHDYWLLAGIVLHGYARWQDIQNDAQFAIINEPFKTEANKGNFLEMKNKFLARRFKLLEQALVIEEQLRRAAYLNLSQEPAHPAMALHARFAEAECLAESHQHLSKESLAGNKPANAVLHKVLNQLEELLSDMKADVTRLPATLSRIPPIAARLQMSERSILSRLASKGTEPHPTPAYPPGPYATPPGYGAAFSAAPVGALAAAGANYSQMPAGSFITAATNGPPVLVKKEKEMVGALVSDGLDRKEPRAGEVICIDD

| effect of a mutation on the interaction | Variant |
| --- | --- |
| disrupting interaction | K554R;K779R;K804R |
| decreasing interaction | S824D |
